Assay results: the supplement of paper PMC10567573

B1: EPB41L3 (parent)
chain: KKFLTLGSKFRYSGRTQAQTRRAS
B2: DFFB (parent)
chain: KLNCDPSRIYKPQTRLKRKQPVRK

Variants of: B1
Experiment: protein stability index of a GFP-peptide fusion (GPS, HEK-293T) (PSI 1-6); higher = more stable
Details: c terminus: a fixed tail appended
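Further: lentivirally expressed fusions sorted by FACS into six bins by GFP to DsRed ratio, PSI derived from sequencing read proportions per bin multiplied by bin number.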

Protein stability index: each site, then its substitutions
T20: D 2.33; F 2.28; G 1.9; H 2.91; I 3.28; K 3.2; L 2.06; M 2.32; N 2.62; P 2.81; R 3.47; S 3.56; V 3.28; Y 2.69
R21: A 1.96; D 2.69; E 2.2; F 1.98; I 2.16; K 3.75; L 1.61; M 1.86; N 2.1; S 3.24; T 2.24; V 3.27; W 2.85; Y 2.48
R22: A 2.08; D 2.24; E 2.72; F 2.05; I 2.02; K 3.1; L 2.19; M 1.75; N 1.87; P 2.52; Q 2.44; S 2.7; T 3.24; V 2.64; W 1.41; Y 2.13
A23: C 2.24; D 2.53; E 3.21; G 3.69; H 3; I 3.4; K 3.81; L 3.66; M 2.49; N 2.85; P 2.5; Q 3.27; R 4.08; S 2.96; T 2.92; W 3.26; Y 2.13
S24: C 2.1; D 3.31; F 2.36; G 2.65; H 2.25; I 2.5; K 3.64; L 2; M 2.5; N 2.83; P 2.57; Q 2.51; R 3.68; T 3.46; V 2.15; W 2.57; Y 2.66

Variants of: B2
Experiment: as above
Details: c terminus: a fixed tail appended

Protein stability index: each site, then its substitutions
K1: A 4.14; C 3.2; D 4.23; E 3.42; F 2.63; G 3.13; H 1.93; I 2.06; L 3.8; M 2.65; N 3.47; P 3.54; Q 3.37; R 4.11; S 2.92; T 3.87; V 3.57; W 3.65; Y 3.24
L2: A 4.27; C 3.55; D 4.89; E 4.52; F 3.96; G 4.94; H 2.95; I 3.2; K 2.28; M 4.09; N 4.5; P 4.57; Q 4.16; R 4.01; S 4.16; T 4.12; V 4.01; W 2.73; Y 3.55
N3: A 4.21; C 3.73; D 4.07; E 4.44; F 3.03; G 4.4; H 3.75; I 2.89; K 4.07; L 3.06; M 3.19; P 3.97; Q 3.53; R 4.24; S 4.17; T 3.96; V 3.96; W 3.21; Y 3.29
C4: A 3.75; D 3.88; E 3.65; F 3.5; G 2.77; H 3.5; I 2.73; K 3.58; L 3.24; M 2.35; N 3.74; P 4.03; Q 3.78; R 4.12; S 3.66; T 3.62; V 4.06; W 3.56; Y 3.51
D5: A 3.46; C 4.16; E 2.9; F 3.08; G 3.35; H 3.48; I 2.74; K 3.8; L 3.06; M 2.71; N 3.96; P 3.25; Q 3.32; R 3.34; S 3.35; T 2.92; V 2.98; W 2.71; Y 3.75
P6: A 3.45; C 3.22; D 4.05; E 4.13; F 2.92; G 3.44; H 3.39; I 3.11; K 4.03; L 3.12; M 3.16; N 3.79; Q 3.62; R 3.7; S 3.71; T 3.56; V 2.89; W 3.08; Y 3.5
S7: A 3.28; C 3.52; D 3.36; E 3.53; F 3.34; G 3.5; H 3.21; I 3.41; K 3.21; L 3.73; M 3.07; N 3.55; P 3.19; Q 3.87; R 2.98; T 3.46; V 3.21; W 3.78; Y 2.73
R8: A 3.84; C 3.63; D 3.63; E 4.21; F 3.55; G 3.83; H 3.61; I 2.93; K 4; L 2.9; M 3.23; N 3.38; P 3.58; Q 3.57; S 3.2; T 2.81; V 2.94; W 3.29; Y 2.77
I9: A 3.57; C 4.01; D 4.04; E 3.93; F 3.83; G 3.47; H 3.31; K 3.84; L 3.81; M 3.3; N 4.01; Q 3.9; R 2.91; S 2.51; T 3.31; V 3.52; W 2.82; Y 3.32
Y10: A 2.92; C 3.62; D 3.55; E 3.56; F 2.58; G 2.28; H 3.86; I 3.6; K 3.21; L 3.84; M 3.38; N 3.57; P 3.72; Q 2.75; R 3.56; S 4.16; T 3.35; V 2.94; W 3.47
K11: A 4.01; C 3.9; D 3.21; E 4.3; F 3.09; G 3.17; H 2.94; I 3.16; L 2.99; M 3.02; N 2.98; P 3.15; Q 2.07; R 3.53; S 2.89; T 3.2; V 3.95; W 3.3; Y 3.94
P12: A 3.47; C 3.21; D 3.09; E 4.24; F 3.38; G 3.3; H 3.13; I 2.85; K 3.46; L 2.86; M 3.31; N 4.49; Q 2.24; R 3.33; S 3.89; T 3.69; W 3.21; Y 2.79
Q13: A 4.01; C 3.56; D 3.83; E 4.16; G 3.56; H 4.35; I 3.24; K 4.12; L 3.09; M 3.51; N 3; P 3.76; R 3.08; S 3.44; T 3.66; V 3.8; W 3.6; Y 3.46
T14: A 3.56; C 3.61; D 3.28; E 3.28; F 2.68; G 3.49; H 3.77; I 3.34; K 3.54; L 3.91; M 2.64; N 3.58
